Laboratory results taken from the supplement of paper PMC10065799, “High-throughput profiling of sequence recognition by tyrosine kinases and SH2 domains using bacterial peptide display” (eLife, 2023).

Assays:
[1] = molecular target: SHP2-C SH2; test: SH2 binding enrichment of the phosphorylated peptide, bacterial display (enrichment ratio); higher = better substrate or ligand; peptides without Tyr show the background
[2] = molecular target: Grb2 SH2 (UniProt P62993); test: as above
[3] = molecular target: c-Src SH2; test: as above
[4] = test system: c-Src; test: phosphorylation enrichment, bacterial display (enrichment ratio); higher = better substrate or ligand; peptides without Tyr show the background
[5] = molecular target: FGFR3 (UniProt P22607); test: as above
[6] = test system: Fer (mouse); test: as above
[7] = test system: c-Abl (mouse); test: as above
[8] = molecular target: EPHB2 (UniProt P29323); test: as above
[9] = molecular target: Fes (UniProt P07332); test: as above
[10] = molecular target: MERTK (UniProt Q12866); test: as above
Sequence of MERTK (Q12866 whole entry, looked up): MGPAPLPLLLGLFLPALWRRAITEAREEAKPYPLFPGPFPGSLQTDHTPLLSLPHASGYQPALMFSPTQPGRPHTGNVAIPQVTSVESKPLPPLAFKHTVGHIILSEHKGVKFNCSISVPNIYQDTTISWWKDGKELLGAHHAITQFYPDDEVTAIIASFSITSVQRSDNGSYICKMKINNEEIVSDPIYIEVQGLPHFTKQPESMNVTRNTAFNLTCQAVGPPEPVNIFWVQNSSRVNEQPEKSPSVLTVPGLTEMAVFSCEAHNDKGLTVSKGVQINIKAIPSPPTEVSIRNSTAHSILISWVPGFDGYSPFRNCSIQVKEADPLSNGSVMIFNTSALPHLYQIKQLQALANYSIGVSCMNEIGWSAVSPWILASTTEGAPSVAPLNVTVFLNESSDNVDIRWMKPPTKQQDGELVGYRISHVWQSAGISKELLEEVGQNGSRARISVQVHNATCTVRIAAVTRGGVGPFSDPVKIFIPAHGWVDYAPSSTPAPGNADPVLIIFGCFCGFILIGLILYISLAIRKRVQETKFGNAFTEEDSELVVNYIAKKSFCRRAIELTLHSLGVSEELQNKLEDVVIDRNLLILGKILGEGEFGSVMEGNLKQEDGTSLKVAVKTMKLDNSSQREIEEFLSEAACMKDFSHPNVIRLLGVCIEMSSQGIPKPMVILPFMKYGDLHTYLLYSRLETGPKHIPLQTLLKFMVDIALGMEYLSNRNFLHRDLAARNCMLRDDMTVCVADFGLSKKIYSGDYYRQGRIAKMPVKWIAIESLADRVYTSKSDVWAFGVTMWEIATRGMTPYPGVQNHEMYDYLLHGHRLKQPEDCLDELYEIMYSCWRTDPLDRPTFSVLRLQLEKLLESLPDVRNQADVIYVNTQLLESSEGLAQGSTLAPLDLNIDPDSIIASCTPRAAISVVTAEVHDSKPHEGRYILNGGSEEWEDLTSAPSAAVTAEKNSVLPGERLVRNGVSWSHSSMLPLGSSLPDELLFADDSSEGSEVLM

[11] = test system: AncSZ; test: as above
[12] = molecular target: EPHB1 (UniProt P54762); test: as above
Sequence of EPHB1 (P54762 whole entry, looked up): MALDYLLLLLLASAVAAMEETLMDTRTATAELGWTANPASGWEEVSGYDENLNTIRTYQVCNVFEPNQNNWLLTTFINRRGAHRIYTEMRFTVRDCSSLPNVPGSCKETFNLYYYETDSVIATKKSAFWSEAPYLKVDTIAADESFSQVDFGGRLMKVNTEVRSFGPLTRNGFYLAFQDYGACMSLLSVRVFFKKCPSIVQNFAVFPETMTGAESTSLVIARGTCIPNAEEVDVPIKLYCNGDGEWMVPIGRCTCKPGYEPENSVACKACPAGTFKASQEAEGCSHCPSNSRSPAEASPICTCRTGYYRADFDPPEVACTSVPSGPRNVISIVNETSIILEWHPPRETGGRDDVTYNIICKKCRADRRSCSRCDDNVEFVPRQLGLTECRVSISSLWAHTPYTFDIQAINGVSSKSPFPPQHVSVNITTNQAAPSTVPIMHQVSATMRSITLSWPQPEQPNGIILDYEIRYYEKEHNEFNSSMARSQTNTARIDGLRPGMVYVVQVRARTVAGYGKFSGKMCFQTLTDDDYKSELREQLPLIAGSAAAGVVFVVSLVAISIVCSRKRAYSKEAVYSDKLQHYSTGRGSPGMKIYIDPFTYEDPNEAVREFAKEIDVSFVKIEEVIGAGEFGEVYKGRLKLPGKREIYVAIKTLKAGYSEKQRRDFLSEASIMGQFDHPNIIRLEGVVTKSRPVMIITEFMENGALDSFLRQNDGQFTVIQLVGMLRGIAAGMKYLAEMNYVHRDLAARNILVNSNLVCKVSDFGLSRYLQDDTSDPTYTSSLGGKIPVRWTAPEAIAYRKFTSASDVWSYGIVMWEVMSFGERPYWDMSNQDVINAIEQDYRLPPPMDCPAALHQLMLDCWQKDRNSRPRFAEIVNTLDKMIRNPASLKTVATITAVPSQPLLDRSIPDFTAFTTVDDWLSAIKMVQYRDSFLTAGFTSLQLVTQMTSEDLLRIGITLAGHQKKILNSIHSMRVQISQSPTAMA

[13] = molecular target: Jak2 (UniProt O60674); test: as above
Sequence of Jak2 (O60674 whole entry, looked up): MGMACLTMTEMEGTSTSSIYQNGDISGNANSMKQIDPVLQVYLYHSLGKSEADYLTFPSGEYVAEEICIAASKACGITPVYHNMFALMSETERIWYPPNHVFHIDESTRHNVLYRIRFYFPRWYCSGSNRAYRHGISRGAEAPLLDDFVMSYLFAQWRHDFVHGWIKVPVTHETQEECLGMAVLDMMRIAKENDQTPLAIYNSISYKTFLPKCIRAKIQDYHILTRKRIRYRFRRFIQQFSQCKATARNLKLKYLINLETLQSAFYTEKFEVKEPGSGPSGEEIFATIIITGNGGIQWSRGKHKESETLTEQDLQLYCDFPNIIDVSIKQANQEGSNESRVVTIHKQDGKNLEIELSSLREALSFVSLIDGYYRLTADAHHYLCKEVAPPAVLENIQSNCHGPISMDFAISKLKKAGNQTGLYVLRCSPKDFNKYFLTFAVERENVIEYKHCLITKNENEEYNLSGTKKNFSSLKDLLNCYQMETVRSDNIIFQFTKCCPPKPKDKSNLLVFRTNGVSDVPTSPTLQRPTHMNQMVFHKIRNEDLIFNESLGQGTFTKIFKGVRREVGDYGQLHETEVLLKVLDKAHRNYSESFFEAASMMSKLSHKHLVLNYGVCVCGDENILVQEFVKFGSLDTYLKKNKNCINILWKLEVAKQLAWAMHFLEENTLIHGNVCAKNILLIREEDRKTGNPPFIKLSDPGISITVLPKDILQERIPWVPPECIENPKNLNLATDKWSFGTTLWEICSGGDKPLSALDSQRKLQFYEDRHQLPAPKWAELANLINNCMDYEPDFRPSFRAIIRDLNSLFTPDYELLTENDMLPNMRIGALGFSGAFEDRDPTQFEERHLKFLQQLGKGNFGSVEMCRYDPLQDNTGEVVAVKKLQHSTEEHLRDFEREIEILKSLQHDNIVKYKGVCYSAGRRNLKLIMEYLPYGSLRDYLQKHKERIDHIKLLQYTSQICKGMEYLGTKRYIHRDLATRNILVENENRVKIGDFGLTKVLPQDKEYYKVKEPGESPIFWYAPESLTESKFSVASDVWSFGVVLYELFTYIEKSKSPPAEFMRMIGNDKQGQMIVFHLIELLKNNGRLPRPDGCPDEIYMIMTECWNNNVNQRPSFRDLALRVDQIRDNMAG

[14] = molecular target: Hck (UniProt P08631); test: as above
Sequence of Hck (P08631 whole entry, looked up): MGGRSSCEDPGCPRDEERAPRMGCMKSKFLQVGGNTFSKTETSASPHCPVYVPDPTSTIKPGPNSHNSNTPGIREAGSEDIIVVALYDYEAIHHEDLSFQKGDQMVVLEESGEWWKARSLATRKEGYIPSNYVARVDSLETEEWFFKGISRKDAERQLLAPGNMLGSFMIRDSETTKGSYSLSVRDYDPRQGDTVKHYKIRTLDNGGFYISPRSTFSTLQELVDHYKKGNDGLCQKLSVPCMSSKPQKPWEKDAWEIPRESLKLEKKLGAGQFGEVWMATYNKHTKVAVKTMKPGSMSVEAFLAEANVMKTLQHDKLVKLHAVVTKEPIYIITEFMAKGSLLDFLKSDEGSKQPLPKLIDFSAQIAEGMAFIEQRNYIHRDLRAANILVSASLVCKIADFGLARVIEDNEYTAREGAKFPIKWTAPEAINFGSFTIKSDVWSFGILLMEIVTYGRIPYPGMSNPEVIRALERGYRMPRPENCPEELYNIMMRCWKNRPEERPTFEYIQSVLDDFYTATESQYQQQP

[15] = molecular target: Fyn (UniProt P06241); test: as above
Sequence of Fyn (P06241 whole entry, looked up): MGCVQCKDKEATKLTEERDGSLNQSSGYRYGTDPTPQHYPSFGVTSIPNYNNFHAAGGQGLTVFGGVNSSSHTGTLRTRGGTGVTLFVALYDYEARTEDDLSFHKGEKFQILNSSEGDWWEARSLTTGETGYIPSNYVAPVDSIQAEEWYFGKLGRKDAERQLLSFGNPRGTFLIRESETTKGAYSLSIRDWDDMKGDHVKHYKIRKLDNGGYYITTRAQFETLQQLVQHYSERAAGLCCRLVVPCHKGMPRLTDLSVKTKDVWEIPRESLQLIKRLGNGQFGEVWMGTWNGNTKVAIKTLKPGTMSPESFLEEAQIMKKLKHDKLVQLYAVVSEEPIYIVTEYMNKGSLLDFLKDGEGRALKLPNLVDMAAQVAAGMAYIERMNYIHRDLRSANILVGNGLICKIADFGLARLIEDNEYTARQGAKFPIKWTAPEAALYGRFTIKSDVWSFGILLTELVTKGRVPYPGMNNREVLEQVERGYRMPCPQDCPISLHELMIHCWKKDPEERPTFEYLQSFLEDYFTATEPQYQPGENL

[16] = molecular target: FGFR1 (UniProt P11362); test: as above
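Throughout, for SH2 binding enrichment of the phosphorylated peptide, bacterial display: peptide library displayed on the E. coli surface as eCPX fusions, selected cells deep-sequenced, score is each peptide's frequency after selection divided by its frequency in the input.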
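Throughout, for phosphorylation enrichment, bacterial display: 11-residue human phosphosite peptides and single-mutation variants displayed on the E. coli surface, counted by deep sequencing, each peptide's frequency after selection divided by its frequency in the unselected input library; frequency after pTyr selection over input frequency; kinase dosed for 20-30% of maximal phosphorylation in three min.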

Sequence of Grb2 SH2 (P62993 whole entry, looked up): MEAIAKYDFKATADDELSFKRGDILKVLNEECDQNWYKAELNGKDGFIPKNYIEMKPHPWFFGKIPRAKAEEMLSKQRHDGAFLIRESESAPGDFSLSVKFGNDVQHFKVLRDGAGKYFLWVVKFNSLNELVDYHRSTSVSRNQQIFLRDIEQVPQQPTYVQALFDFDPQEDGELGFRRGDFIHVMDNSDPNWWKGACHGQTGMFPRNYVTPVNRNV

Sequence	SH2 binding enrichment [1]	SH2 binding enrichment [2]	SH2 binding enrichment [3]	phosphorylation enrichment [4]	phosphorylation enrichment [5]	phosphorylation enrichment [6]	phosphorylation enrichment [7]	phosphorylation enrichment [8]	phosphorylation enrichment [9]	phosphorylation enrichment [10]	phosphorylation enrichment [11]	phosphorylation enrichment [12]	phosphorylation enrichment [13]	phosphorylation enrichment [14]	phosphorylation enrichment [15]	phosphorylation enrichment [16]
SGVNKYSTAFG [GJB3_Y16]	0.658	0.84	0.428	0.434	0.454	0.394	0.461	0.384	0.614	0.425	0.613	0.375	0.604	0.409	0.437	0.4
SHLEDYPFDAE [AKR1B10_Y310_N313D]	0.842	0.746	0.471	0.462	0.714	0.469	0.672	0.554	1.14	0.369	0.986	0.516	1.3	0.448	0.485	0.467
SHTPSYCDESL [RITA1_Y109]	0.706	0.895	0.678	0.403	0.516	0.505	0.566	0.459	0.831	0.419	0.806	0.462	0.62	0.405	0.405	0.502
SIGLGYHKDLQ [NF1_Y1169]	0.639	0.776	0.423	0.458	0.486	0.368	0.487	0.629	0.536	0.381	0.528	0.34	0.548	0.424	0.427	0.414
SIKDKYLTALY [KCNH2_Y611_V612L]	0.634	0.968	0.565	0.623	0.546	0.44	0.487	0.452	0.707	0.439	0.727	0.456	0.624	0.651	0.56	0.417
SIKNKYVTALY [KCNH2_Y611_D609N]	0.932	0.909	0.381	0.461	0.598	0.518	0.454	0.498	0.592	0.528	0.559	0.349	0.605	0.47	0.359	0.409
SIRFNYLLDVL [FGFR4_Y237_YF]	1.3	1.37	1.1	0.413	0.747	0.502	0.706	0.518	1.14	0.387	0.94	0.539	1	0.485	0.432	0.481
SKAYAYVHFDS [PABPC5_Y149_G146A]	14.2	0.893	4.66	0.365	0.803	0.477	0.789	0.461	1.19	0.389	0.967	0.549	1.05	0.398	0.394	0.445
SLFPGYNFRFA [P2RX7_Y291_YF]	0.962	1.24	0.819	0.502	0.736	0.511	0.508	0.46	0.953	0.475	0.844	0.614	0.673	0.476	0.472	0.433
SLLTDCSPQLQ [OTC_Y345_Y345C]	0.765	0.975	0.483	0.475	0.707	0.522	0.768	0.548	1.06	0.441	0.999	0.567	0.905	0.554	0.454	0.518
SLLTDYSPQLQ [OTC_Y345]	0.918	0.708	0.517	0.372	0.546	0.453	0.483	0.508	0.796	0.381	0.776	0.459	0.788	0.48	0.45	0.447
SLYPGYNFRYA [P2RX7_Y291]	0.672	0.91	0.666	0.378	0.57	0.498	0.477	0.604	0.685	0.399	0.63	0.423	0.495	0.529	0.413	0.44
SNMPTYSGHFS [GRIN2A_Y1224_T1229S]	0.643	0.898	0.491	2.61	0.45	1.04	0.684	0.784	0.581	1.15	0.594	0.585	0.662	1.48	1.7	0.433
SQETYYRVSNM [ABCD1_Y181_Q178E]	0.79	0.657	0.473	2.96	4.94	0.549	1.33	2.95	0.805	3.7	1.37	4.42	3.85	3.97	2	6.81
SQKRKYIEIDS [SDAD1_Y580]	1.04	0.856	2.09	0.507	0.376	0.394	0.613	0.414	0.614	0.571	0.818	0.463	0.701	0.475	0.451	0.463
SQQTYYRVSNM [ABCD1_Y181]	0.789	0.853	0.636	3	5.82	0.401	0.795	1.12	0.678	3.23	0.703	1.93	6.19	3.23	1.47	7.77
